Experimental data from patent US20250381223A1 (UTC THERAPEUTICS SHANGHAI, published 2025).

T1: CD123-Fc recombinant protein (human, UniProt P26951 19-305)
T1 construct: construct not described; not shown: Fc part
T1 sequence (looked up): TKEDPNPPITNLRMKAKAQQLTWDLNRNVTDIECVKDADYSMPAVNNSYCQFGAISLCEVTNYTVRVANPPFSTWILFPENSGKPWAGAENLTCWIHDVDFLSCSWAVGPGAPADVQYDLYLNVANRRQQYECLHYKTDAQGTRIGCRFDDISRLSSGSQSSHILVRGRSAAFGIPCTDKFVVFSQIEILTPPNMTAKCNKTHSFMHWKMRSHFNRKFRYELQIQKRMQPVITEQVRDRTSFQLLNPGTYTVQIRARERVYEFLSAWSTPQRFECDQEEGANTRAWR


molecular target: T2, CD28 (detection antigen of the BLI assay) (human, UniProt P10747 19-152, limits assumed); assay: BLI (GATOR); antibody loaded at 30 nM, antigen 300-37.5 nM
T2 construct: also called the antigen
From the text: The affinity kinetics of the humanized antibodies were detected using biolayer interferometry (BLI). The experimental procedures were as follows: [0533] 1. GATOR instrument was run, and the Kinetics experimental mode was selected. [0534] 2. The analysis program was run according to Table 5

Row | Binder | Kd | koff | kon
1 | huVH5huVL3 (antibody, human IgG1, kappa, V domains shown) VH: QVQLQESGPGLVKPSETLSLTCTVSGFSISDYGVHWIRQPPGKGLEWIGVIWAGGGTNYNPSLKSRVTISVDTSKNQVSLKLSSVTAADTAVYYCARDKGYSYYYSMDYWGQGTTVTVSS VL: DIQLTQSPSSLSASVGDRVTITCRASESVEYYVTSLMQWYQQKPGKAPKLLIFAASNVESGVPSRFSGSGSGTDFTLTISSLQPEDFATYYCQQSRKVPYTFGGGTKLEIKR | 11.5 nM | 0.00101 s⁻¹ | 87800 M⁻¹ s⁻¹

molecular target: T1, CD123-Fc recombinant protein; assay: flow cytometry of T cells electroporated with CAR mRNA, stained with CD123-Fc + PE-anti-hIgG-Fc; Mock 1.68
Protocol: The CD123 CAR mRNAs obtained in Example 35 above were each introduced into T cells by electroporation according to the following procedures: T cells were collected, washed with the Opti-MEM medium, and resuspended at 1×10e⁷/mL with the Opti-MEM medium; 10 μg of RNA and 100 μL of T cells were aliquoted, mixed well, and electroporated under the following parameters (BTX machine): 500 V, 0.7 ms; the cells were then transferred to a pre-warmed medium and cultured at 37° C. The binding of CD123 CART cells to the CD123-Fc recombinant protein was detected by FACS staining. […] Empty vector (Mock) was a control T cell without CAR molecule. A549 tumor cells were electroporated with different amounts of CD123 mRNA. The electroporation procedure was the same as described above, and only the parameters were changed, with the parameters 300 V, 0.5 ms used. CD123 expression in A549 tumor cells was detected by FACS staining of isotype or anti-CD123 antibodies and A549 cells electroporated with different amounts of CD123 mRNA. […] The cytotoxicity of CD123 CART cells against tumor cells was detected in an in vitro cytotoxicity assay. Tumor cells expressing EGFP or EGFP-A549 cells electroporated with different amounts of tumor antigen were seeded at 3000 cells/100 μL/well into a flat-bottom 96-well plate; CART cells were diluted to a proper concentration and seeded to the 100 μL/well tumor cells according to different E/T ratios (e.g., 10:1, 3:1, or 1:1), and the co-culture plate was placed into the IncuCyte S3 machine and scanning parameters were set. After scanning for 3 days, the total green object integrated intensity (GCU×μm²/well) was analyzed to calculate the killing efficiency.

Row | Binder | percent of cells in the CD123-Fc positive gate
2 | anti-CD123 scFv-C9 (scFv, On mRNA-electroporated T cells as CAR) scFv: QSVLTQPPSASGTPGQRVTISCSGSNSNIENNYVYWYQHLPGTAPKRLIYQNNQRPSGVPDRFSGSKSGTSASLAISGLRSEDEADYYCSAWDDSLSAWVFGGGTELTVLGGGGSGGGGSGGGGSEVHLVESGGGLVQPGRSLRLSCTASGFTFGDYAMNWVRQAPGKGLEWVGFIRSKASGGTTDYAASVKGRFTISRDDSKSIAYLQMNSLKTEDTAVYYCTRALRGYSYGLFDYWGQGTLVTVSS | 94%
3 | anti-CD123 scFv-C1 (scFv, On mRNA-electroporated T cells as CAR (hinge to CD3-zeta)) scFv: QSALTQPASVSGSPGQSITISCTGTSSDIGAYNYVSWYQQHPGKAPKLIIYDVSHRPSGVSNRFSGSKSGNTASLTISGLQSEDEADYYCSSDTNNNTLVFGVGTKLTVLGGGGSGGGGSGGGGSEVHLVESGGGVVQPGRSLRLSCAASGFTFSSYGMHWVRQAPGKGLEWVAVIWYDGSNKYYADSVKGRFTISRDNSKNTLYLQMNSLRAEDTAVYYCARDRDGFFLPMYYFDYWGQGTLVTVSS | 53.6%
4 | anti-CD123 scFv-C4 (scFv, On mRNA-electroporated T cells as CAR) scFv: QSALTQPPSASGTPGQRVTISCSGSSSNIGSNYVNWYQQLPGTAPKLLIYRNNQRPSGVPDRFSGSKSGTSASLAISGLRSEDEADYYCAAWDDSLSGHGVFGTGTELTVLGGGGSGGGGSGGGGSQVQLVQSGPEVKKPGASVKVSCKASGYDFIRYYMNWVRQAPGQGPEWMGAIDPSDGDTTYGQKFQGRVTLTRDTFTSTVYMELSSLRSEDTAVYYCARDWELTNSYGLDVWGQGTTVTVSS | 93.8%
5 | anti-CD123 scFv-C11 (scFv, On mRNA-electroporated T cells as CAR; also called anti-CD123-C11) scFv: QSVVTQPPSASGTPGQRVTISCSGSSSNIGSNYVYWYQQLPGTAPKLLIYRNNQRPSGVPDRFSGSKSGTSASLAISGLRSEDEADYYCAAWDDSLSGYVFGTGTKLTVLGGGGSGGGGSGGGGSEVQLVESGGGLVQPGRSLRLSCTASGFTFGDYAMSWVRQAPGKGLEWVGFIRSKAYGGTTEYAASVKGRFTISRDDSKSIAYLQMNSLKTEDTAVYYCTRDIGYYGSGSYSPFDYWGQGTLVTVSS | 38%
6 | anti-CD123 scFv-C15 (scFv, On mRNA-electroporated T cells as CAR) scFv: DIQLTQSPSTLSASVGDRVTISCRASQSISSWLAWYQHKPGKAPKLLIYKTSALEDGVPSRFSGSGSGTEFTLTISSLQPDDFATYFCLHYGSYTFGQGTKVDIKGGGGSGGGGSGGGGSEVQLVESGGGLVNPGGSLRLSCEASGFTFSDYYISWIRQAPGKGLEWISYISGSSTYTDFADSVKGRFTISRDNAKNTVFLQMNSLRAEDTAVYYCARDRRGRFDPWGQGTLVTVSS | 97.3%
7 | anti-CD123 scFv-C3 (scFv, On mRNA-electroporated T cells as CAR) scFv: AIQMTQSPSSLSASVGDRVTITCRASQGIGTYLAWFQQKPGKAPKSLIYAASNLQSGVPSKFSGSGSGTDFTLTISNLQPEDFATYYCQQYKGYPLTFGGGTKLEIKGGGGSGGGGSGGGGSQVQLVQSGAEVKKPGSSVKVSCKASGGTFSSYAISWVRQAPGQGLEWMGGIIPIFGTANYAQKFQGRVTITADESTSTAYMELSSLRSEDTAVYYCARDSGWFGPRYYFDYWGQGTLVTVSS | 84.7%
8 | anti-CD123 scFv-C13 (scFv, On mRNA-electroporated T cells as CAR) scFv: DVVMTQTPLSLPVTLGQPASISCRSSQGLVFSDGVTYLNWFQQRPGQSPRRLIYKVSNRDSGVPDRFSGSGSGTDFTLKISRVEAEDVGIYYCMQGTHWPHTFGQGTKLEIKGGGGSGGGGSGGGGSEVQLVESGGGLVKPGGSLRLSCAASGFTFSSYSMNWVRQAPGKGLEWVAFISHDASKKFYADSVKGRFTLSRDNSKNTLYLEMNSLGAEDTALYYCGRDRNWGFSDFWGQGTLVTVSS | 85.7%
9 | anti-CD123 scFv-C10 (scFv, On mRNA-electroporated T cells as CAR) scFv: SYELTQPPSVSVAPGKTARITCGGNNIGSKSVHWYQQKPGQAPVLVVYDDSDRPSGIPERFSGSNSGNTATLTISRVEAGDEADYYCQVWDSSSDHWVFGGGTKLTVLGGGGSGGGGSGGGGSQVQLVQSGAEVKKPGSSVKVSCKASGGTFSSYAISWVRQAPGQGLEWMGGIIPIFGTANYAQKFQGRVTITADESTSTAYMELSSLRSEDTAVYYCAREKWGYYGDYYYGMDVWGQGTTVTVSS | 32.3%
10 | anti-CD123 scFv-C2 (scFv, On mRNA-electroporated T cells as CAR) scFv: QSVVTQPPSVSAAPGQKVTISCSGSSSNIGNNYVSWYQQFPGTAPKLLIYDNNKRPSGIPDRFSGSKSGTSGTLGITGLQTGDEADYYCVTWDTSLSAGVFGGGTKLTVLGGGGSGGGGSGGGGSQITLKESGGGLVKPGGSLRLSCAASGFTFSNAWMSWVRQAPGKGLEWVGRIKSKTDGGTTDYAAPVKGRFTISRDDSKNTLYLQMNSLKTEDTAVYYCTTDPHGYYYGMDVWGQGTTVTVSS | 81.7%
11 | anti-CD123 scFv-C14 (scFv, On mRNA-electroporated T cells as CAR) scFv: DIRMTQSPSSLSASVGDRVTITCQASQDITNYLNWYHQKPGKAPKLLIYDASNLETGVPSRFSGGGSGTDFTFTISSLQSEDIGTYYCQQYDDLPLTFGGGTKVEIKGGGGSGGGGSGGGGSQVQLQESGPGLVKPSETLSLTCTVSGGSISSSSHYWGWIRQPPGKGLEWIGSIYYSGSTYYNPSLKSRVTISVDTSKNQFSLKLSSVTAADTAVYYCARRVWVWPTYGMDVWGQGTTVTVSS | 85.4%
12 | anti-CD123 scFv-C16 (scFv, On mRNA-electroporated T cells as CAR) scFv: QSVVTQPPSASGTPGQRVTISCSGSSSNIEGNTVSWYQQFPGAAPKLLIYSNSYRASGVPDRFSGSKSGTSASLAISELQSEDEADYYCSAWDDSLNGPVFGGGTELTVLGGGGSGGGGSGGGGSQVQLQESGGGLVQPGGSLRLSCAASGFTFSSYSMNWVRQAPGKGLEWVSYISSSSSTIYYADSVKGRFTISRDNAKNSLYLQMNSLRAEDTAVYYCARDIYGDWDYYYYGMDVWGQGTTVTVSS | 94.2%
13 | anti-CD123 scFv-C6 (scFv, On mRNA-electroporated T cells as CAR) scFv: SYELTQPPSVSVSPGQTARIPCSGADLGDQYVSWYQHQPGQSPLLVIYEDDKRPSGIPERFSGSNSGNTATLTISGTQAMDEADYYCQAWDGNAAIFGGGTKLTVLGGGGSGGGGSGGGGSQVQLVQSGGGSVQPGGSLRLSCAASGFTFTRYSMNWVRQAPGKGLEWVSYISSSSSTIYYADSVKGRFTISRDNAKNSLYLQMNSLRDEDTAVYYCARDGYGGNSDYYGMDVWGQGTTVTVSS | 93.3%
14 | anti-CD123 scFv-C5 (scFv, On mRNA-electroporated T cells as CAR; also called anti-CD123-C5) scFv: NFMLTQPHSVSESPGKTVTLSCTRSSGSIAGSYVQWYQQRPGSSPTTVIFQDNQRPSGVPDRFSGSIDKSSNSASLTISGLKTEDEADYYCQSYDSNNQVFGGGTKLTVLGGGGSGGGGSGGGGSEVHLVESGGGVVRPGGSLRLSCAASGFTFGDYGMSWVRQAPGKGLEWVSGINWNGGRTGYADSVKGRFTISRDNAKNSLYLQMNSLRAEDTALYYCARARGSGSYFGYMDVWGKGTTVTVSS | 79.3%
